Source: US20120040894A1
Numbered stars: 1 amine (or outer) side, 2 acyl side, 3 side chain; on linkers, the order of the positions; unused ones are H or OH. Square brackets hold non-standard residues; d marks the D form. Ends that are not written are not given here. Dap(AcBr) = N-(bromoacetyl)-L-2,3-diaminopropionic acid, O=C(CBr)NC[C@H](N[*:1])C(=O)[*:2]; Oic = O=C(O)[C@@H]1C[C@@H]2CCCC[C@@H]2N1; Dip = N[C@H](C(=O)O)C(c1ccccc1)c1ccccc1; β3hF = N[C@H](CC(=O)O)Cc1ccccc1; Chg = N[C@H](C(=O)O)C1CCCCC1; Phg = N[C@H](C(=O)O)c1ccccc1; Tle = CC(C)(C)[C@H](N)C(=O)O; β3hP = O=C(O)C[C@@H]1CCCN1; Dpa = not defined here

B1: Dap(AcBr) (peptide)
peptide: DTHFPI[Dap(AcBr)]IF-NH2
modifications: N-terminus assumed
SMILES: CC[C@H](C)[C@H](NC(=O)[C@H](CNC(=O)CBr)NC(=O)[C@@H](NC(=O)[C@@H]1CCCN1C(=O)[C@H](Cc1ccccc1)NC(=O)[C@H](Cc1c[nH]cn1)NC(=O)[C@@H](NC(=O)[C@@H](N)CC(=O)O)[C@@H](C)O)[C@@H](C)CC)C(=O)N[C@@H](Cc1ccccc1)C(N)=O
B2: Pr10 (peptide)
peptide: D[Tle]H[Phg][Oic][Chg]C[Chg]F-NH2
modifications: N-terminus assumed
SMILES: CC(C)(C)[C@H](NC(=O)[C@@H](N)CC(=O)O)C(=O)N[C@@H](Cc1c[nH]cn1)C(=O)N[C@H](C(=O)N1[C@H](C(=O)N[C@H](C(=O)N[C@@H](CS)C(=O)N[C@H](C(=O)N[C@@H](Cc2ccccc2)C(N)=O)C2CCCCC2)C2CCCCC2)C[C@@H]2CCCC[C@@H]21)c1ccccc1

biological target: T1, ferroportin tagged at the C-terminus with green fluorescent protein (ECR293/Fpn-GFP cells); assay: cell-based or functional assay
T1 sequence (Q9NP59 whole entry, species assumed, looked up): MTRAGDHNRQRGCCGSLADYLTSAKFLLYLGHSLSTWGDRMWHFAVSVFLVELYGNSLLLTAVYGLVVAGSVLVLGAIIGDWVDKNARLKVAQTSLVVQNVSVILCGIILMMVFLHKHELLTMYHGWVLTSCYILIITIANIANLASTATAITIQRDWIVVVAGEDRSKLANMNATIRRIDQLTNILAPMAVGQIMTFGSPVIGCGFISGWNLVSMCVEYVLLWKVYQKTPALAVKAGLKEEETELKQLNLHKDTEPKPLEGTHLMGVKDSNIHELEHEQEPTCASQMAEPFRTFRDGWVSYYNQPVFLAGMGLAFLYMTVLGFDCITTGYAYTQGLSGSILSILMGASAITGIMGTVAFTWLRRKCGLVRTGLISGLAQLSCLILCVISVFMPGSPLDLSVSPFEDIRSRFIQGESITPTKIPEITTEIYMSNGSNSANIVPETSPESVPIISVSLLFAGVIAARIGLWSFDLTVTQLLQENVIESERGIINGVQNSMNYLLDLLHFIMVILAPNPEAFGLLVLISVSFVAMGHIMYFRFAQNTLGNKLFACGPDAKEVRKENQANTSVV

Point of comparison: DTHFPICI[β3hF]PPK-NH2 [Pr19], EC50 (nM); loss of fluorescence of Fpn-GFP cells, flow cytometry 700 nM. Against it:
- B1 — higher, > 10000 nM
- B2 — higher, > 3000 nM
- D[Tle]HP[Oic][Chg]C[Chg]F-NH2 (also: retroinverted) [Pr11] — higher, > 3000 nM
- D[Dpa]PICIF-NH2 (reading uncertain) [Pr40] — 10-fold lower, 70 nM
- D[Dpa]PICI[Dpa]-NH2 (reading uncertain) [Pr41] — 2.3-fold lower, 300 nM
- DTH[Dip]PCCC[Dip]-NH2 (also: any disulfide between the Cys residues not recoverable) [Pr46] — 8.8-fold lower, 80 nM
- DTHFPICI[β3hF]PPR-NH2 [Pr20] — 3.5-fold lower, 200 nM
- DTHFPICI[β3hF]P[β3hP]K-NH2 [Pr21] — within 1.5-fold, 500 nM
- DTHFPICI[β3hF]P[β3hP]R-NH2 [Pr22] — within 1.5-fold, 600 nM
